Here are results for 1 molecule from US20160031945A1 (INDIANA UNIVERSITY RESEARCH AND TECHNOLOGY, published 2016).

The target in assay [1] is T1, CaV2.2 L1-GST fusion protein (first cytosolic loop of CaV2.2) (rat, UniProt Q02294 356-483).
T1 construct: range 356-483; also called cytosolic loop 1; first intracellular loop; not shown: GST tag of the pGex-3x-Glu vector
As to the kind of experiment: SPR (BIAcore 3000), immobilized L1-GST. A general note: Surface plasmon resonance follows binding to a sensor surface in real time, without labels.

Assay [2] concerns the target T2, CaV2.2 Ct-dis-GST fusion protein (distal end of the C-terminus of CaV2.2) (rat, UniProt Q02294 2121-2336).
T2 construct: range 2133-2348; also called distal C-terminus; not shown: GST tag of the pGex-3x-Glu vector
Put plainly: SPR (BIAcore 3000), immobilized Ct-dis-GST.

T2 sequence (Q02294 other isoform, or with tags, fused parts or gaps): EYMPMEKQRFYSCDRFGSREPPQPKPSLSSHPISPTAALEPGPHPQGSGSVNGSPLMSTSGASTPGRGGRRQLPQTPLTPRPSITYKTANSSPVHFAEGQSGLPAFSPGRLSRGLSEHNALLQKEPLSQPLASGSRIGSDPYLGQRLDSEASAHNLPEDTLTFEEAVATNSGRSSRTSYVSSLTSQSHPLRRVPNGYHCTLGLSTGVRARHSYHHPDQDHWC
T1 sequence (Q02294 other isoform, or with tags, fused parts or gaps): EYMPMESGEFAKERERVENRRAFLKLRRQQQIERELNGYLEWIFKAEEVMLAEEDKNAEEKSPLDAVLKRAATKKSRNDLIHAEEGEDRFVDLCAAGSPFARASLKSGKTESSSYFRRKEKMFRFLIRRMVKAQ

B1: TAT-Scramble (modified TAT sequence coupled to a random sequence) (peptide)
peptide: YGRKKRRQRRRWEAKEMLYFEALVIE
notes: also called TAT control; scramble peptide
Turning to B1, the binding result in assay [1] and in assay [2] was “no binding (tested: 1/3/5 µM)” throughout.
